Results on four molecules are retold here after US8927500.

Bridges are numbered along the chain shown (N, C = ends). [ ]: non-standard residue; d: D form. pY = N[C@@H](Cc1ccc(OP(=O)(O)O)cc1)C(=O)O; R8 = C=CCCCCCC[C@@](C)(N)C(=O)O; hLeu = CC(C)CC[C@H](N)C(=O)O; S5 = C=CCCC[C@](C)(N)C(=O)O; Cou6 = not defined here; Cou8 = not defined here; βAla = NCCC(=O)O

The target in assay [1] is T1, MDMX (In-house, 40 kD), O15151.
T1 chain: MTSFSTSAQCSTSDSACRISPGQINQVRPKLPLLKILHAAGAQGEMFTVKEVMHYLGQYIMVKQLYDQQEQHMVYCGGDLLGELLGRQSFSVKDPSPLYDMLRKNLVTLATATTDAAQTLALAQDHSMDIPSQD
Put plainly: competitive FP vs FAM-labelled linear peptide; grade + = greater than 1000 nM. The following applies: remark: other sources report otherwise.

Assay [2] addresses MDM2 (In-house, 41 kD), Q00987. The assay is described as above. Conditions: remark: other sources report otherwise.
The target of another assay is MDM2 (In-house, 41 kD) (UniProt Q00987). As to the kind of experiment: competitive fluorescence polarization, MDM2 with FAM-labeled linear peptide; graded scale of paragraph 458. For orientation: Fluorescence polarisation rises when a labelled molecule tumbles more slowly, as on binding a larger partner.
Sequence of MDM2 (In-house, 41 kD) (Q00987 1-138 limits assumed): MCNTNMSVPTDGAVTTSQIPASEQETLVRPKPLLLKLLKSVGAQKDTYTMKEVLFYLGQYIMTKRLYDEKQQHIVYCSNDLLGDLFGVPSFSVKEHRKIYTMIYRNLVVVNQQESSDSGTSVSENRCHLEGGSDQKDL
The target in another assay is T2, MDMX (In-house, 40 kD) (UniProt O15151).
T2 sequence (looked up): T1 chain
Put plainly: competitive fluorescence polarization, MDMX with FAM-labeled linear peptide; graded scale of paragraph 458.

Sequence of MDM2 (In-house, 41 kD), Q00987 (Q00987 1-138 limits assumed): as above

Take Cou8-[βAla]LTF[R8]EYWAQ[hLeu][S5]SAA-NH2 (staple 5-12; reading uncertain) [SP447]: in assay [1], the IC50 is greater than 1000 nM and the Ki is greater than 1000 nM.

On to Ac-LTA[R8]EYWAQL[S5]AAAAA[dA]-NH2 (staple 4-11) [SP560], for which the Ki in assay [2] and in assay [1] was greater than 1000 nM throughout.

As for Cou6-[βAla]LTF[R8]EYWAQ[hLeu][S5]SAA-NH2 (staple 5-12; reading uncertain) [SP446], in assay [1], the half-inhibitory concentration (IC50) was greater than 1000 nM and the Ki is greater than 1000 nM.

As to Ac-LTF[R8]E[pY]WAQL[S5]AAAAA[dA]-NH2 (staple 4-11) [peptidomimetic macrocycle SP615, Ac-LTF$r8EpYWAQL$AAAAAa-NH2], the Ki with MDM2 (In-house, 41 kD) is less than 10 nM; in the assay with MDMX (In-house, 40 kD), less than 10 nM.

What is called IC50 is the concentration needed to halve the response being measured. By Ki is commonly meant the dissociation constant of the complex between target and ligand, obtained from inhibition or displacement.
